*: point of attachment. 5FAM = O=C1OC2(c3ccc(O)cc3Oc3cc(O)ccc32)c2ccc(C(=O)*)cc21
T1: H. sapiens EHMT2 catalytic subunit (amino acids 913 to 1193) (H. sapiens, UniProt Q96KQ7 913-1193)
T1 construct: EHMT2 (G9a, KMT1C), human, catalytic subunit, amino acids 913 to 1193; Plasmid provided by the laboratory of Peter W. Lewis; The tag is surmised from the nickel column purification; also called G9a; KMT1C; source: Rosetta E. coli, purified (HisTrap FF nickel column, dialysis)
T1 sequence (looked up): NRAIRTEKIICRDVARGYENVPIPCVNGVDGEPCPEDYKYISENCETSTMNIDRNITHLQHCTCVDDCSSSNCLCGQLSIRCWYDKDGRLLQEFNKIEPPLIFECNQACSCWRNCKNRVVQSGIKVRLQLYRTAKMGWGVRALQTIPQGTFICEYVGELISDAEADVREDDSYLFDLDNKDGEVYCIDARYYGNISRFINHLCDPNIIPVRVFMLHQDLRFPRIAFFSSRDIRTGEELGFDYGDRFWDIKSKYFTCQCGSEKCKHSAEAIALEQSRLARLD

T2: SUV39H1, full length with N-terminal maltose-binding protein (UniProt O43463 1-412)
T2 construct: SUV39H1 (KMT1A), full length; Plasmid generated for this study; The His tag is surmised from the nickel column purification; also called KMT1A; source: Rosetta E. coli, purified (HisTrap FF nickel column, dialysis)
T2 sequence (looked up): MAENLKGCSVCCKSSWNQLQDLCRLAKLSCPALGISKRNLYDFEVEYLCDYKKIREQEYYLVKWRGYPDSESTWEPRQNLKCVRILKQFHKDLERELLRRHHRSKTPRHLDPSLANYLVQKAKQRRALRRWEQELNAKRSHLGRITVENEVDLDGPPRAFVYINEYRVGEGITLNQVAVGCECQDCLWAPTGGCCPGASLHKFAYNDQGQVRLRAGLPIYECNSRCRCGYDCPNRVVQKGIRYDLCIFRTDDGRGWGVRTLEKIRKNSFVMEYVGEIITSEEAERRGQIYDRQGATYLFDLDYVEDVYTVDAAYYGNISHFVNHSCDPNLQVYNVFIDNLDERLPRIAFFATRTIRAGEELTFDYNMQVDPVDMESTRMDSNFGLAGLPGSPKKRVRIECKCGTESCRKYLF

T3: H. sapiens EHMT1 catalytic subunit (amino acids 982 to 1266) (H. sapiens, UniProt Q9H9B1 982-1266)
T3 construct: EHMT1 (G9a-like protein, KMT1D), human, catalytic subunit, amino acids 982 to 1266; UniProt entry Q9H9B1 is printed for human EHMT1; Plasmid from Addgene (gift of Cheryl Arrowsmith); The tag is surmised from the nickel column purification; also called G9a-like protein; GLP; source: Rosetta E. coli, purified (HisTrap FF nickel column, dialysis)
T3 sequence (looked up): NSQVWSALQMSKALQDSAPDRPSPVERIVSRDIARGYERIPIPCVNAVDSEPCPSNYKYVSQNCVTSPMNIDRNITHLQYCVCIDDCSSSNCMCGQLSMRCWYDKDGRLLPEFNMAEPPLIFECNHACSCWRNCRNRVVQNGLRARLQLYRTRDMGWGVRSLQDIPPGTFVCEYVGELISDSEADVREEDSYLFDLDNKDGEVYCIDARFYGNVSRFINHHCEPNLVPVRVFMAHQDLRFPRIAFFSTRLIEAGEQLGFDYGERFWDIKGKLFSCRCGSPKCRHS


Tests used:
Test in all cases: fluorescence polarisation; enzyme titrated (0-10 uM, monomeric) against a fixed 20-100 nM of N-terminus 5-FAM labeled H3(1-17) peptide, with 100 uM SAH; 50 mM HEPES pH 7.9, 2 mM MgCl2, 0.5 mM DTT, 0.1 mM AEBSF, 0.01% Triton X-100, 10% glycerol; 10 min at 25 °C; one site specific binding fit
Settings in all cases: both partners purified
[1] = molecular target: T1, H. sapiens EHMT2 catalytic subunit …
[2] = molecular target: T4, H. sapiens SUV39H2 catalytic subunit (amino acids 162 to 410) (H. sapiens, UniProt Q9H5I1 162-410)
T4 construct: Plasmid from Addgene (gift of Cheryl Arrowsmith); The tag is surmised from the nickel column purification; also called KMT1B; source: Rosetta E. coli, purified (HisTrap FF nickel column, dialysis)

[3] = molecular target: T2, SUV39H1, full length with N-terminal …
[4] = molecular target: T3, H. sapiens EHMT1 catalytic subunit …

T4 sequence (Q9H5I1 162-410): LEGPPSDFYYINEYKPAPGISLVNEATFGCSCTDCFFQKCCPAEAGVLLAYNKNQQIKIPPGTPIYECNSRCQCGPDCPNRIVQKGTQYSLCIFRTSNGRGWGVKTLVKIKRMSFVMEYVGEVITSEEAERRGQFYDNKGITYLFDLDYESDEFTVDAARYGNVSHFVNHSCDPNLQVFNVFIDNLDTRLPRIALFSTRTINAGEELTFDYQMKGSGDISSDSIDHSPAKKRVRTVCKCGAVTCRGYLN

| Kd [1] | Kd [2] | Kd [3] | Kd [4] | Binder |
| --- | --- | --- | --- | --- |
| 26 ± 1 nM | 694 ± 98 nM | 750 ± 47 nM | 74 ± 10 nM | ARTKQTARKSTGGKAPR (peptide, UniProt P68431 2-18, looked up, 5-Carboxyfluorescein (5-FAM) on the N-terminus; monomethyl-lysine at 9, Histone H3, residues 1-17, lysine 9 monomethylated; Made on Rink-amide resin, so the C-terminus is probably an amide (surmised); also called H3K9me1; source: synthetic peptide (solid phase synthesis on Rink-amide ChemMatrix resin, C18-HPLC-purified)) [H3(1-17) K9 monomethylated peptide, N-terminus 5-FAM labeled] |
| 40 ± 3 nM | 929 ± 573 nM | 479 ± 123 nM | 124 ± 24 nM | ARTKQTARKSTGGKAPR (peptide, UniProt P68431 2-18, looked up, 5-Carboxyfluorescein (5-FAM) on the N-terminus; dimethyl-lysine at 9, Histone H3, residues 1-17, lysine 9 dimethylated; Made on Rink-amide resin, so the C-terminus is probably an amide (surmised); also called H3K9me2; source: synthetic peptide (solid phase synthesis on Rink-amide ChemMatrix resin, C18-HPLC-purified)) [H3(1-17) K9 dimethylated peptide, N-terminus 5-FAM labeled] |
| 16 ± 0.4 nM | 1080 ± 226 nM | 499 ± 45 nM | 29 ± 1 nM | 5FAM-ARTKQTARKSTGGKAPR-NH2 (peptide, UniProt P68431 2-18, looked up, Histone H3, residues 1-17, lysine 9 unmodified; Made on Rink-amide resin, so the C-terminus is probably an amide (surmised); Residues 1-17 are the same in H3.1, H3.2 and H3.3; also called H3K9un; source: synthetic peptide (solid phase synthesis on Rink-amide ChemMatrix resin, C18-HPLC-purified)) [H3(1-17) K9 unmodified peptide, N-terminus 5-FAM labeled] |

Reference: PMC10404681, “Intrinsic catalytic properties of histone H3 lysine-9 methyltransferases preserve monomethylation levels under low S-adenosylmethionine” (The Journal of Biological Chemistry, 2023)
